Key:
[1] = target: CR1 cyclic peptide of human LRP-8 (human); test: ELISA using CR1 peptide
[2] = target: Cynomolgus monkey LRP-8 expressed on HEK293 cells (cynomolgus monkey); test: FACS, cyno LRP8 cells
[3] = target: Mouse LRP-8 expressed on HEK293 cells (mouse) (UniProt Q924X6); test: FACS, mouse LRP8 cells

OD450 [1]: 0.08 OD450 | FACS (ratio +/-) [2]: 0.8 | FACS (ratio +/-) [3]: 1
Substance: Negative IgG control (Table 20) (antibody)
